Measured values taken from patent US12168686 (CLOVER BIOPHARMACEUTICALS, dated 2024).

Key:
[1] = molecular target: T1, soluble DR5-Fc fusion protein (UniProt O14763 56-182, limits assumed, biotin-labeled (sites not given)); experiment: BLI (ForteBio Octet), biotin-labeled DR5-Fc on streptavidin sensors
T1 construct: It was biotinylated and captured on streptavidin biosensors; also called DR5 (TRAIL-R2); biotinylated DR5-Fc; not shown: Fc part
Text: (§1) Figure 7: FIG. 7 is the kinetic studies of TRAIL-Trimer, TRAIL-Fc and native TRAIL binding to the soluble DR5-Fc fusion protein assessed by biolayer interferometry measurements. The Super Streptavidin biosensor tips of the ForteBio Octet RED 96 were coated with biotinylated DR5-Fc. The biosensor tips were dipped in increasing concentrations gradient of TRAIL-Trimer, TRAIL-Fc and native TRAIL to measure their binding to DR5-Fc and subsequently moved to wells containing buffer (PBS) to measure dissociation rates. The dissociation constant Kd was shown for each graph. Figure 7: Figure 7:
(§2) Comparison of TRAIL-Trimer, TRAIL-Fc and Native TRAIL in Receptor Binding Avidity In Vitro DR5 (TRAIL-R2) is one of TRAIL's functional receptors which initiates extrinsic apoptosis pathway signaling upon activation; thus, we examined the binding kinetic profile of TRAIL-Trimer, TRAIL-Fc and native TRAIL to a soluble DR5-Fc fusion protein. With Fortebio biolayer interferometry measurement, the biotin-labeled DR5-Fc was first captured on Streptavidin (SA) sensors, and real-time binding curves were measured and plotted by applying the sensor in gradient concentrations (15.4 nM-123.5 nM) of the three analytes (FIG. 7).

[2] = molecular target: T1, soluble DR5-Fc fusion protein; experiment: biolayer interferometry (ForteBio Octet RED 96), biotinylated DR5-Fc captured on streptavidin biosensor tips, TRAIL-Trimer in solution at graded concentrations
Text: as §1, §2

T1 sequence (O14763 56-182 limits assumed): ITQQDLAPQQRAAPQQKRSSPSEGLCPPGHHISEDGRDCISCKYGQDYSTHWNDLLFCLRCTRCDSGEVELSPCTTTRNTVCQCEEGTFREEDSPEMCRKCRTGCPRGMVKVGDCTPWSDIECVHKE

B1: TRAIL-Trimer (mature human TRAIL fused to the C-propeptide of human alpha1(I) collagen, Trimer-Tag, with a mutated BMP-1 site) (ligand)
chain: VRERGPQRVAAHITGTRGRSNTLSSPNSKNEKALGRKINSWESSRSGHSFLSNLHLRNGELVIHEKGFYYIYSQTYFRFQEEIKENTKNDKQMVQYIYKYTSYPDPILLMKSARNSCWSKDAEYGLYSIYQGGIFELKENDRIFVSVTNEHLIDMDHEASFFGAFLVGGSNGLPGPIGPPGPRGRTGDAGPVGPPGPPGPPGPPGPPSAGFDFSFLPQPPQEKAHDGGRYYRANDANVVRDRDLEVDTTLKSLSQQIENIRSPEGSRKNPARTCRDLKMCHSDWKSGEYWIDPNQGCNLDAIKVFCNMETGETCVYPTQPSVAQKNWYISKNPKDKRHVWFGESMTDGFQFEYGGQGSDPADVAIQLTFLRLMSTEASQNITYHCKNSVAYMDQQTGNLKKALLLKGSNEIEIRAEGNSRFTYSVTVDGCTSHTGAWGKTVIEYKTTKSSRLPIIDVAPLDVGAPDQEFGFDVGPVCFL
notes: also called SCB-313; disulfide bond-linked trimeric TRAIL fusion protein
- koff [1]: < 1e-07 s⁻¹
- kon [1]: 81000 M⁻¹ s⁻¹
- Kd [2]: < 1 pM
